Measurements reported in publication PMC2757719, “EBNA1-Mediated Recruitment of a Histone H2B Deubiquitylating Complex to the Epstein-Barr Virus Latent Origin of DNA Replication” (PLoS Pathogens, 2009).

How the values were obtained:
[1] = target: T1, USP7 (ubiquitin specific protease USP7), full length (human, UniProt Q93009 1-1102); test: native gel or EMSA; EBNA1 fragment titrated, preincubated with 10 pmols USP7 or USP7-NTD 10 min at RT before 10 fmoles 32P-labelled DS site 1 DNA (or EBNA1-DNA preformed, then rising USP7, Figure 2C); 20 mM Tris pH 7.5, 200 mM NaCl, 1 µg salmon sperm DNA, 20 µl; 10% polyacrylamide gel; read-out: supershift of the EBNA1-DNA complex; conditions: both partners purified
T1 construct: Ubiquitin specific protease USP7 (HAUSP), human, full length; calculated mass printed as 130 Kd (135 kDa in the introduction); Monomeric by glycerol gradient sedimentation; also called HAUSP; Herpesvirus Associated Ubiquitin Specific Protease
T1 sequence (Q93009 whole entry, the tested form may be a part): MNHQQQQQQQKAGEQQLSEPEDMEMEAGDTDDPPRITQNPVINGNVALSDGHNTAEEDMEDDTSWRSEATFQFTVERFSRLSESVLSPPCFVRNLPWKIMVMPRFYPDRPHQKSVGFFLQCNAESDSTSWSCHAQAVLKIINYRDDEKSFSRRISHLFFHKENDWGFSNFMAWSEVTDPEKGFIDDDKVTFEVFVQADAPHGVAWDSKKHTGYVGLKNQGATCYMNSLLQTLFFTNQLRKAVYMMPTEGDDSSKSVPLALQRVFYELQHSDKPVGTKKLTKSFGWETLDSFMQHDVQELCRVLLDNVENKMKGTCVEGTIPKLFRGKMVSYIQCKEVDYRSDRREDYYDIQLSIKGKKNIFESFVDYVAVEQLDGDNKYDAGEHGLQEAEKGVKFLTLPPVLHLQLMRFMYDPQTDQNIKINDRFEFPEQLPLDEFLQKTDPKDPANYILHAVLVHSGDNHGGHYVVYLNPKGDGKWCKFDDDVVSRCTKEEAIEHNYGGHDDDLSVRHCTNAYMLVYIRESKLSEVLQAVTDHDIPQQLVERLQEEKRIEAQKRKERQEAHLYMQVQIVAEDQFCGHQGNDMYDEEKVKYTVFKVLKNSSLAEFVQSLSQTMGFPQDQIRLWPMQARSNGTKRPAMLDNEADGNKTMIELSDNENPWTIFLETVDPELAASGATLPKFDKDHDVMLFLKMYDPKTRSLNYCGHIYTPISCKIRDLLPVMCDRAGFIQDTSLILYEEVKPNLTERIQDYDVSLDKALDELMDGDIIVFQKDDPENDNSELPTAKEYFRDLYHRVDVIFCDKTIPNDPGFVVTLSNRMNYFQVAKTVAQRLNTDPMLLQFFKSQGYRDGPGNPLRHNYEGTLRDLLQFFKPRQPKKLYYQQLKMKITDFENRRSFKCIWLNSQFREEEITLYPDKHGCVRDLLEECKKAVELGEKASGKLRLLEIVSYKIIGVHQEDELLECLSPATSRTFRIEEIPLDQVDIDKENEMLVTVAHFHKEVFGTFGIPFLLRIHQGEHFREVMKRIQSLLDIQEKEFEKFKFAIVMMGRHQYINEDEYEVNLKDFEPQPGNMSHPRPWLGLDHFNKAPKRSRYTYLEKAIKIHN

[2] = target: T1, USP7 (ubiquitin specific protease …); test: co-sedimentation; glycerol gradient sedimentation: 50 µg USP7 and 25 µg GMPS, alone or mixed 1 h at room temperature, on 10%–20% glycerol gradients in 50 mM HEPES pH 7.9, 200 mM NaCl, 0.5 mM EDTA; SW41 34,000 rpm, 18 h, 4°C; markers aldolase 158 kDa, catalase 232 kDa; conditions: both partners purified
[3] = target: the molecule itself; test: as above

Row | Binder | binding result [1] | stoichiometry N [2] | stoichiometry N [3]
1 | EBNA1 truncation mutant 395–641 (domain or fragment, EBNA1 of Epstein-Barr virus, amino acids 395-641, amplified from pc3oriPEBNA1; also called EBNA1_(395–641); EBNA_(395–641); source: E. coli BL21 pLysS (pET15b), purified (Ni-NTA Agarose)) PRRPPPGRRPFFHPVGEADYFEYHQEGGPDGEPDVPPGAIEQGPADDPGEGPSTGPRGQGDGGRRKKGGWFGKHRGQGGSNPKFENIAEGLRALLARSHVERTTDEGTWVAGVFVYGGSKTSLYNLRRGTALAIPQCRLTPLSRLPFGMAPGPGPQPGPLRESIVCYFMVFLQTHIFAEVLKDAIKDLVMTKPAPTCNIRVTVCSFDDGVDLPPWFPPMVEGAAAEGDDGDDGDEGGDGDEGEEGQE | binds | – | –
2 | GMP synthetase (GMPS), His-tagged, recombinant (enzyme, human GMP synthetase, full-length cDNA (in pOTB7) amplified from the start codon to the stop codon and cloned into pFastBac HT B; mass printed as 77 Kda; also called guanosine 5′ monophosphate synthetase; His-tagged GMPS; source: High Five insect cells infected with baculovirus, purified (nickel resin)) not shown | – | 1 | 2
